The target of assay [1] is HLA-B*44:03. The assay can be described thus: IEDB peptide-MHC binding, purified MHC/competitive/radioactivity; filed as Kd, often an IC50 or EC50 that approximates it; ≥ and ≤ were set here for values at or beyond the usual limits of such assays.
The target in assay [2] is HLA-B*44:02. Described as above.
Assay [3] concerns the target HLA-A*02:01. The assay can be described thus: IEDB peptide-MHC binding, purified MHC/competitive/fluorescence; filed as Kd, often an IC50 or EC50 that approximates it; ≥ and ≤ were set here for values at or beyond the usual limits of such assays. The settings on record: source organism: Vaccinia virus.
For assay [4], the target named is HLA-A*69:01. The assay can be described thus: IEDB peptide-MHC binding, purified MHC/direct/fluorescence; filed as Kd, often an IC50 or EC50 that approximates it; ≥ and ≤ were set here for values at or beyond the usual limits of such assays.
Assay [5] concerns the target HLA-A*02:01. The assay is described as above.
Assay [6] deals with HLA-B*07:02. The assay is described as above.
Assay [7] deals with HLA-B*15:01. The assay is described as above. Particulars: source organism: Salmonella enterica subsp. enterica serovar Typhimurium.
Assay [8] has as its target HLA-A*26:01. The assay can be described thus: IEDB peptide-MHC binding, purified MHC/competitive/radioactivity; filed as Kd, often an IC50 or EC50 that approximates it; ≥ and ≤ were set here for values at or beyond the usual limits of such assays.
The target in assay [9] is HLA-A*02:01. Description: IEDB peptide-MHC binding, purified MHC/competitive/fluorescence; ≥ and ≤ were set here for values at or beyond the usual limits of such assays.
The target of assay [10] is HLA-A*02:06. Description: IEDB peptide-MHC binding, purified MHC/competitive/radioactivity; filed as Kd, often an IC50 or EC50 that approximates it; ≥ and ≤ were set here for values at or beyond the usual limits of such assays.
Assay [11] concerns the target HLA-A*02:03. The description is as above.
The target in assay [12] is HLA-A*02:02. The assay is described as above.
Setting [13] is: source organism: Dengue virus 4 Philippines/H241/1956.
Setting [14] is: source organism: Salmonella enterica subsp. enterica serovar Typhimurium.
The mark [15] stands for this setting: source organism: Mycobacterium avium 104.
Where [16] appears, read: source organism: Giardia lamblia ATCC 50803.
Where [17] appears, read: source organism: Dengue virus 2 Jamaica/1409/1983.
Where [18] appears, read: source organism: Zaire ebolavirus.
Where [19] appears, read: source organism: Dengue virus 1 Singapore/S275/1990.
The mark [20] stands for this setting: source organism: Sudan ebolavirus.
Where [21] appears, read: source organism: Vaccinia virus WR.
The mark [22] stands for this setting: source organism: Dengue virus 2 Thailand/NGS-C/1944.
[23] abbreviates: source organism: Oligoflexia bacterium.
[24] abbreviates: source organism: HIV-1 M:B_ARV2/SF2.

IESSKNQTW: the Kd in [1] (setting [13]) was determined as 158 nM; in assay [2] (setting [13]), 135 nM.

KLIIHNPEL yielded a Kd in assay [3] of 2 nM.

For the sequence WLKGNISPV, the Kd in assay [4] (setting [14]) came to 536 nM; in assay [5] (setting [14]) it was 20.5 nM; in assay [6] (setting [14]), 3110 nM; in [7] it was 795 nM.

With VYLPGRGGV, the Kd in assay [4] (setting [15]) and in assay [5] (setting [15]) was at least 20000 nM throughout.

Take DPNPQEVVL: the Kd in assay [6] (source organism: Human immunodeficiency virus 1) was at least 30700 nM.

With LMQDCAIKA, the results for the Kd in assay [4] (setting [16]) and in [5] (setting [16]) were at least 20000 nM and 82.1 nM, respectively.

In the case of ETLETLLLLT, in assay [8] (setting [17]), the Kd was 17400 nM.

QVNNLEEIC returned an IC50 in [9] (setting [18]) of at least 112000 nM.

On to PMVHSTFLI, for which the Kd in assay [5] (source organism: Homo sapiens) was determined as 2430 nM.

With DVRNDMISY, in [8] (setting [13]), the Kd is 431 nM.

Turning to NEGIMAVGI, the Kd in [1] (setting [19]) was 160 nM; in assay [2] (setting [19]) it was 48 nM.

Turning to IKKPDGSEC, the IC50 in [9] (setting [20]) was at least 318000 nM.

Take ELITEQMAPH: in assay [8] (setting [13]), the Kd is 6060 nM.

On to GMSLLEYGV, for which the Kd in [4] (setting [16]) was at least 20000 nM; in assay [5] (setting [16]), 3.5 nM.

The sequence MDYHKILTA showed a concentration for half-maximal inhibition (IC50) in assay [9] (setting [18]) of at least 114000 nM.

Sequence LVPKNSPGM displayed an IC50 in assay [9] (setting [20]) of 17700 nM.

Consider DVDMDFDLNI, for which the Kd in assay [10] (setting [21]) was determined as 5820 nM; in assay [11] (setting [21]), 1520 nM; in assay [12] (setting [21]), 2030 nM.

For the sequence TTLATISTS, the IC50 in assay [9] (setting [18]) came to 6620 nM.

For the sequence YTEAAAATCA, the figures for the Kd in [10] (setting [21]), in [11] (setting [21]) and in assay [12] (setting [21]) were 7150 nM, 16100 nM and at least 36500 nM, respectively.

Take VLFDLDEDD: in assay [9] (setting [18]), the IC50 worked out at 3740 nM.

With SINITPDDGL, the figures for the Kd in [10] (setting [21]), in assay [11] (setting [21]) and in assay [12] (setting [21]) were 0.343 nM, 1230 nM and 413 nM, respectively.

With ILFILFFAYV, the Kd was 1210 nM in assay [10] (setting [21]), 366 nM in assay [11] (setting [21]) and 132 nM in assay [12] (setting [21]).

Turning to NEMVLLQMEN, the results for the Kd in assay [1] (setting [22]) and in assay [2] (setting [22]) were 1440 nM and 512 nM, respectively.

EYSGGLHGV: the Kd in [4] (setting [23]) was determined as 460 nM; in assay [5] (setting [23]), 18000 nM.

Consider STPQGLVKRF, for which, in [8] (setting [13]), the Kd is 453 nM.

QLAKAIITP registered an IC50 in assay [9] (source organism: Vaccinia virus Copenhagen) of at least 96300 nM.

Regarding TISGNIYSA, the Kd turned out to be 179 nM in assay [10] (setting [21]), 18.9 nM in [11] (setting [21]) and 84.5 nM in [12] (setting [21]).

In turn, ENSSAMVQV registered a 50% inhibitory concentration (IC50) in assay [9] (setting [18]) of at least 277000 nM.

With DMLKLFTHDI, the figures for the Kd in assay [10] (setting [21]), in assay [11] (setting [21]) and in assay [12] (setting [21]) were 2970 nM, 16.1 nM and 196 nM, respectively.

For the sequence LTFGWCFKLV, the Kd in [10] (setting [24]) is 20.1 nM; in assay [11] (setting [24]), 167 nM; in assay [12] (setting [24]), 910 nM.

Turning to SRNSTHEMYW, the dissociation constant (Kd) in assay [1] (setting [17]) was found to be 1370 nM; in assay [2] (setting [17]), 6360 nM.

As for STSNVITDQT, the Kd in assay [10] (setting [21]) is 10800 nM; in assay [11] (setting [21]), at least 70400 nM; in assay [12] (setting [21]), at least 53600 nM.

SSLPPLESD had a half-maximal inhibitory concentration (IC50) in assay [9] (setting [18]) of at least 170000 nM.

Consider VQFSILNNPV, for which the Kd in [10] (setting [21]) amounted to 186 nM; in assay [11] (setting [21]), 369 nM; in assay [12] (setting [21]), 131 nM.

For the origin of these results see the Immune Epitope Database (IEDB).
